From the nanobody polyreactivity screen of Harvey et al. (2022)

Test: yeast display, Sf9 membrane polyspecificity reagent, FACS + sequencing; frameworks hold sequencing errors
Method in brief: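 In a synthetic yeast display library (Saccharomyces cerevisiae BJ5465), nanobody expression was induced with galactose for 36–48 hours. FACS gates were set low and high (top ~1%) using anti-HA fluorescence for expression and streptavidin fluorescence for binding of the Sf9 membrane reagent. Each polyreactivity label is drawn from the gate of origin.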

Sequence	polyreactivity (PSR sort gate)
QVQLVESGGGLVQAVGSLRLSCAASGFIFVRYAMGWYRQAPAKERELVAAISYSGGSTYYADSVKGRFTISRDNAKNTVYLQMNSLKPEDTAVYYCAAEYYSGGYRYYAEYGYWGQGTQVTVSS	high polyreactivity
QVQLVESGGGLVQARGSLRLSCAASGSTVGYNAMGWYRQAPGKERELVAAISGNGGSTYADSVKGRFTISRDNAKNTVYLQMNSLKPEDTAVYYCAAVQYGYGLASDSIFDYWGQGTQVTVSS	high polyreactivity
QVQLVESGGGLDQAGGSLRLSCAASGRIFNKYAMGWYRQAPGKERELVAAITRSGTRTFYADSVKGRFTISRDNAKNTVYLQMNSLKPEDTAVYYCNRDQYPFTKMDYWGQGTQVTVSS	high polyreactivity
QVQLVESGGGLVQAGGSLRLSCAASGSIFPSYAMGWYRQAPGKERELVAAISVSGGSTYYADSVKGRFTISRDTAKNTVYLQMNSLKPEDTAVYYCAAQHGYPRYYYWGQGTQVTVSS	high polyreactivity
QVQLVESVGGLVQAGGSLRLSCAASGSIFGYNAMGWYRQAPGKERELVAVINASGASTYYADSVKGRFTISRDNAKNTVYLQMNSLKPEDTAVYYCAKDPFPFPGGDDWGQGTQVTVSS	low polyreactivity
QGQLVESGGGLVQAGGSLRFSCAASGRTLSAHAMGWYREAPGTERELVATISTRGGRTYYADSVKGRFTISRDHAKNTVYIQMNSLKPEHTAVYSCAVTIRAKYTLKEDYWGQGTQVTVSS	low polyreactivity
QVQLVESGGGLVHAGGSLRLSCAASGRIFVGYYAMGWYRQAPGKERELVAAITIGGRTYYADSVKGRFTISRDNAKKTVYLQMKSLKPEDTAVYYCAASKYSRAYQEFGYWGQGTQVTVSS	high polyreactivity
QVQLVESGGGLVQAGGSLRLSCAASGFIFEGYAMGWYRQAPGKERELVAAISRGGGSTYYADSVKGRFTISRDNAKNTVYLQMNSLKPEDTAVYSCATGGYYHYTGVKMYYWGQGTQVTVSS	high polyreactivity
QVQLVESGGGLVQAGGSLRLSCAASGSTFWYYGMGWYRQAPGKERELVAAITRGGSTYYADSVKGRFTISRDNAKNTVYLQMNSLKPEDTAVYYCAAGISVRWSPSYYYWGQGTQVTVSS	high polyreactivity
QVQLLETGGGLVQAGRSLRLSCAASGFIFRANAMGWYRQAPGNERELVATISRSGGSTSYADSVKGRFTISRDNAKNTVYLQMNSLKPEDTAVYYCNKRTPYLRPILDYWGQGSQVTVSS	high polyreactivity
QVQLVESGGGLVQAGGSLRVSCAASGFIFVRNTMVWYRQAPGKERELVAGIRYSGGSTYYADSVKGRFTISRDNAKNTVFLQMNSQKTEDTAVYYCAARSHRRLMYYWGQGTQVNVSS	high polyreactivity
QVQLVESGGGLVQAGGSLRLSCAASGGTFGRYAMGWYRQAPGKERELVAAITYGGGSTYYADSVKGRFTISRDNAKNTVYLQMNSLKPEDTAVYYCNKYASLRYWGQGTQVTVSS	high polyreactivity
QVQLVESGGGLVQAGGSLRLSCDASGNTYLNALGWYRQAPGKERELVAAISKGGADTYYADSVKGRFTISRDNAKNTVYLQMNSLKPEDTAVYYCAADGYADGWWVEYPWTYDYWGQGTQVTVSS	low polyreactivity
QVQLVESGGGLVQAGGSLRLICDASGSIFEDYTMGWYRPGPGKERELVAASSRSGVRKYYADSVKGLFTISRDNAKNTVNLQMNSLKPEDTGVYYCARTRVASKGYDYWGQGTQVTVSS	high polyreactivity
QVQLVESCGGLVQAGGSLRLSCAASGRIFRWYAMGWYRQAPGKERELVARITSGGSTNYADSVKGRFTISRDNAKNTVYLQMNSLKPEDTAVYYCARDWGKSEYEYWGQGTQVTVSS	high polyreactivity
QVQLVESGGGLVQAGGSLRLSCAASGFNFYGYVMGWYRQAPGKERELVAVISRSGDRTSYADSVKGRFTISRDTAKNTVYLQMNSLKPEDTAVYYCAAESGWGAAGEELDYWGQGTQVTVSS	high polyreactivity
QVQLVESGGGLVQAGGSLRLSCAASGFTFYRYPMGWYRQAPGKETELVAAITKRGDRTYYADSVKGRFRISRDNAKNTVFLQMSSLKPEDTAVYFCASDPYYSVSYWLAYDYWGQGTQVTVSS	high polyreactivity
QVQLVESGGGLVQAGGSLRLSCAASGNTFYQYAMGWYRQAPGKERELVAAIDWSGGSTYADSVKGRFTISRDNAKNTVYLQMNSLKPEDTAVYYCNASVKPSNVWSRGYDYWGQGTQVTVSS	low polyreactivity
QVQLVESGGGLVQAGGSLRLSCAASGRTFAYNTMGWYRQAPGKEREFVAAIDSGDSTYYADSVKGRFTISRDNAKNTVYLQMNSLKPEDTAVYYCAARRYYGYDYWGQGTLVTVSS	high polyreactivity
QVQLVESGGGLVQAGGSLRLSCAASGFILQYNAMGWYRQAPGKEREFVATITGSGGSTYYADSVKGRFTISRDNAKNTVYIQMYSLKPEDTAFYYCNAETYIDLSGKFPVDYDYWGQGTQVTVSS	low polyreactivity
QVQLVESGGGLVQAGGSLRLSCAASGRIFAHYEMGWYRQAPGKERELVAAISSGGSTYYADSVKGRFTISRDNAKNTVYLQMNSLKPEDTAVYYCNKRPVRRKYDYWGQGTQVTVSS	low polyreactivity

Sequence	polyreactivity (PSR sort gate)
QVQLVESGAGLVQAGGRIRLSCAASGRTLYGNTMGWYRPAPWKERELVAAINWSGGRTRYADSVKGRFTNSRDNAKNTVYVEMNSVKPEDTAVYYCAATKRANHERFGSWGQGTQVTVSS	high polyreactivity
QVQLVESGGGLVQAGGSLRLSCAASGLIFAPYAMGLYRQAPGKERELVAAISFRGGSTYYADSVKGRFTISRDNAKNTVYFQMNSLKPEDTAVYYSAADWLYDYGEYYYWGQGTQVTVSS	high polyreactivity
QVQLVESGGRLVQAGGSLRLSCAASGSIFAVNAMGWYRQAPGKERELVAAIDWSDGITYYADSVKGRFTISRDNAKNTVYLKMNSLKPEDTALNYCAADATAYGWYVEQFSFYDNDYWGQGTQVTVSS	high polyreactivity
QVQLVESGGCLVQAGGSLRLSCAASGSTLGYYAMGWYRQAPGKERELVASIRWDTASTYYADSVKGRFTISRDNAKNTVYLQMNSLKPEDTAVYYCNAGRPRFYRSRWYYYGYGYWGQGTQVTVSS	high polyreactivity
QVQLVESGGGLVQAGGSLRLSCAASGFTFRKNAMGWYRQAPGKERELVAAIRGSAGSTYYADSVKGRFTISRDNAKNTVYLQMNSLKPEDTAVSYCATGGYPSLWDGYGYWGQGTQVTVSS	low polyreactivity
QVQLVESGGGLVQAGGSLRLSCAASGSIFYDNAMGWYRQAPGNERELVAAIDDSDRTNYADSVKGRFTITRDNAKNTVYLQMNSLKPEDTAVYYCARDRWKWHYGYDYWGQGTQVTVSS	low polyreactivity
QVQLVESGGGLVQAGGSLRLSCAASGFIFGGYAMGWSRQAPGKERELVADISSSGGSTYYADSVKGRFTLSRDNAKNTVYLQMNSLKPEDTAVYDCAKVGWSRRYYYWGQGTQVTVSS	high polyreactivity
QVQLVESGGGLVQAGGSLRLSCAASGSIFSYYAMGWYRQAPGKERELVARITRGGDGTYYADSVKGRFTISRDNAKNTDYLQMNSLKPEDTAVYYCARRQVLYTRDFEYDYWGQGTQVTVSS	low polyreactivity
QVQLVESGGGLVQAGGSLRLSCAASGSTFTDYAMGWYRQAPGKERELVAAIDSGGITNYADSVKGRFTISRDNAKNTVYLQMNSLKPEDTAVYYCAVEGEYLTPSGRYRLDYWGQGTQVTVSS	low polyreactivity
QVQLVESGGGLVQAGGSLRLSCAASGRTFGVNAMGWYRQAPGKERELVAAISYSGASTFYADSVKGRFTISRDNAKNTVYLQMNSLKPEDTAVYYCDARGYYGGFYYWGQGTQVTVSS	high polyreactivity
QVQLVESGGGLVQARGSLRLSSAASGIIFYEYAMGCYRQAPGKERELVAAISDTGGSTYYADSVKGRFTISRDNAKNTVYLQMNSLKPEDTAVYYCAAEYLAYYSGYDYWGQGTQVTVSS	high polyreactivity
QVQLVESGGGLVQAGGSLRLSCAASGSTLRRYAMGWYRQAPGKERELVAINSSGGITYYADSVKGRVTISRDNAKNTVYLQMNSLKPEDTAVYYCNARRPAPGYGYDYWGQGTQVTVSS	low polyreactivity
QVQLVESGGGLVQAGGSLRLSCAASGIIFGYYAMGWYRQAPGKERELVAAISRRGGSTYYADSVKGRFTISRDNAKNTVYLQMNSLKPEDTAVYYCAAVELRLSTPDMESWGQGTQVTVSS	high polyreactivity
QDQLVESGGGLVQAGGSLRLSCAASGFIFGGYAMGWYRQAPGKERELVAAISSSGGSTYYADSVKGRFTISRDNAKNTVYLQMNSLKPEDTAVYYCAKVGWSRRYYYWGQGTQVTVSS	high polyreactivity
QVQLVESGGGLVQAGGSLRLSCAASGFIFTGYAMGWYRQAPGTEREFVAAISYSGGSTYADSVKGRFTISRDNAKNTVYLQMNSLKPEDTAVYYCNARQGLWRYTAENDYWGQGTHVTVSS	low polyreactivity
QVQLVESGGGLVQAGGSLRLSCAASGRTLRLNAMGWYRQAPGKQREFVDAISRSGDSTYYADSVKGRFTISRDNAKNTVYLQMNSLKPEDTAVYYCNAKYYRYPCAYRYDYWGQGTQVTVSS	high polyreactivity
QVQLVESGGGLVQAGGSLRLSCAASGRIFTGYAMGWYRQAPGKERELVASITWRGGSTSYADSVKGRFTISRDNAKNTVYLQMNSLKPEDTAVYYCAAQKWYYPYYWGQGTQVTVSS	high polyreactivity
QVQLVESGGGLVQAGGSLRLSCAASGSIFADYAMGWYRQAPGKERELVSAITGSGGRTYYADSVKGRFTISRDNAKNTLYLQMNSLKPEDTAVYYCAADGLSNVRQMDYWGQGTQVTVSS	low polyreactivity
QVQLVESGGGLVQAGGILRLSCASSRFTFTWYAMGWYRPAPGKERELVAAISLSGDRTYYADSVKGRFTISRDNAKNTVYLQMNSLKPEDTAVYYCVFAFEYYYWGQGTQVTVSS	low polyreactivity
QVQLVESGGGLVQAGGSLRLSCAASGFTFDSYAMGWYRQAPGKERELVADITWDGGSTYYADSVKGRFTISRDNAKNTVYLQMKSLKPEDTAVYYCAADFGTFSIDVYSWMDYWGQGTQATVSS	low polyreactivity
